# From publication PMC10376177, “Comparison of Fungal Thermophilic and Mesophilic Catalase–Peroxidases for Their Antioxidative Properties” (Antioxidants, 2023)
# Target: the molecule itself
# Assay: native gel or EMSA
protein,measurement,value
"MagKatG1, mesophilic catalase–peroxidase from Magnaporthe oryzae (enzyme, also called Magnaporthe oryzae katG) MGECPLRTANVAGGGTRNRDWWPNTLKLNILRQHTEATNPYDPNFDYAEAFKSLDYEGLKKDLRALMTDSQEYWPADFGHYGGLFVRMAWHSAGTYRVMDGRGGGGQGQQRFAPLNSWPDNVSLDKARRLLWPIKQKYGNKISWADLMLLTGNVALEDMGFKTFGFAGGRPDTWEADESTYWGGETTWLGNEVRYSSGNEGHKESGVIDGSESKKGHKDIHTRDLEKPVSAAHMGLIYVNPEGPDGIPDPVAAARDIRTTFSRMAMNDEETVALIAGGHTVGKTHGAAPSDNVGPEPEAAPIENQGLGWSNKHGSGKGPDTITSGLEVIWTKEPAKFTMNYLEYLFKYEWELTKSPAGANQWVAKNAEEFIPDAFDPSKKHKPRMLTTDLSLRFDPEYEKISRRFLENPEQFKDAFARAWFKLLHRDMGPRSRWLGPEVPKETLLWEDPIPTPDHPIIDGSDVDSLKKAILATGVAPSKLIQTAWASASTFRGGDKRGGANGARIRLEPQNKWEVNNPQQLAEVLKALEGVKADFEKSGKKVSIADLIVLAGVAAVEQAAGVPVPFTPGRGDATQEQTDVESFTHLEPAADAFRNYGKGTSRVTTEQIMVDRAQQLTLTAPELTVLVGGLRVLGANYDGSSHGVWTDKPGKLTNDFFVTLLDPYTSWKSVDGEVFEGTNSKSGKKLTGTRADLVFGSHSELRALAEVYGSADGQQKFTKDFVAAWDKVMNLDRFDVRRGIYDETRLKSKL",stoichiometry N,2
